{"source": "patent US9482669B2", "about": "“Crystal structure of the NanR and ManNAc-6P complex, and uses thereof” (priority 2013, dated 2016)", "molecules": {"B1": {"name": "NanR complexed with ManNAc-6P: complex formed by interaction between NanR protein and ManNAc-6P (protein, UniProt P0A8W0 1-263, looked up)", "HTH-type transcriptional …": "MGLMNAFDSQTEDSSPAIGRNLRSRPLARKKLSEMVEEELEQMIRRREFGEGEQLPSERELMAFFNVGRPSVREALAALKRKGLVQINNGERARVSRPSADTIIGELSGMAKDFLSHPGGIAHFEQLRLFFESSLVRYAAEHATDEQIDLLAKALEINSQSLDNNAAFIRSDVDFHRVLAEIPGNPIFMAIHVALLDWLIAARPTVTDQALHEHNNVSYQQHIAIVDAIRRHDPDEADRALQSHLNSVSATWHAFGQTTNKKK", "modifications": "complexed with ManNAc-6P"}, "B2": {"name": "NanR dimer: V. vulnificus transcriptional repressor of the nan operon, SEQ ID NO. 1 (protein, listed as Vibrio vulnificus)", "chain": "MGSPKNLLVRLRSNMEPFSKKLRVVADYILENAHDVQFQTITDLARNTQTSEATVVRLCRDMGYKGYSDFRMALAVDLSQTESRQQNHIEGDICDVSAQSAVDSLQDTAKLIDRKSLARIVERVHQAEFIGCIGVGASSIVGRYLAYRLIRIGKKAIMFEDTHLAAMSASRSSQGDLWFAVSSSGSTKEVIHAAGLAYKRDIPVVSLTNINHSPLSSLSTEMLVAARPEGPLTGGAFASKVGALLLVDVLVNSLLESYPEYKDSVQETAEVVIPLMAN", "modifications": "homodimer"}, "B3": {"name": "K199A (protein)", "chain": "B2 chain with K199A"}, "B4": {"name": "R57A: modified NanR protein, Arg57 substituted with alanine (protein)", "chain": "B2 chain with R57A"}, "B5": {"name": "K199L (protein)", "chain": "B2 chain with K199L"}, "B6": {"name": "R60A: modified NanR protein, Arg60 substituted with alanine (protein)", "chain": "B2 chain with R60A"}}, "key": {"[1]": {"tested_on": "nanTp-nanE intergenic region", "assay": "EMSA of NanR with nanTp-nanE intergenic region", "type": "binding, Vibrio vulnificus", "conditions": "for DNA binding in EMSA: wild-type or mutant NanR", "procedure": "(§1) Purified His-NanR protein was used to raise a primary polyclonal antibody by immunizing European rabbits (Oryctolagus curiculus). First, after one primary injection containing 500 μg of protein, three boosters containing 200 μg of protein was performed at 2-week intervals. Western blotting, EMSA and DNaseI footprinting assays were performed according to typical procedures known in the art.\nNanR represses both nan T(PSL)AR and nanEK nagA operons by binding to an operator within the nanTp-nanE intergenic region. To examine the role of R57 and R60 residues in DNA binding, EMSA (electrophoretic gel mobility shift assays), in which the nanTp-nanE intergenic region was incubated with wild-type or mutant NanR in the absence or presence of ManNAc-6P, were performed.\nThe importance of K188 and K199 residues on all to binding of NanR to DNA was assessed by EMSA. […] Furthermore, the mutants were much more susceptible to ManNAc-6P than wild-type NanR (FIG. 10). […] The transcriptional control region of nan operon interacts with the dimer via the positively charged residues in this space (FIGS. 7b and 7c)."}, "[2]": {"tested_on": "32P-labeled transcriptional control region of nan operon", "assay": "DNaseI footprinting assay", "type": "binding, Vibrio vulnificus", "conditions": "400 nM NanR, 0.1 mM or 1 mM ManNAc-6P", "procedure": "as §1\n(§2) Therefore, the present inventors hypothesized that binding of ManNAc-6P may alter the conformation of NanR and alleviate its interaction with the transcriptional control region of nan operon. In detail, a DNaseI footprinting assay using NanR protein and ^32P-labeled transcriptional control region of nan operon was performed."}, "[3]": {"molecular_target": "NanR-binding duplex DNA (transcriptional control region of nan operon)", "assay": "Isothermal titration calorimetry of NanR with NanR-binding duplex DNA", "parameters": "species or system Vibrio vulnificus", "conditions": "for Kd: ITC at 25° C., 0.48 mM protein titrated against 0.03 mM DNA, read-out: dissociation constant (Kd) for target DNA", "procedure": "NanR-binding duplex DNA (5′-[…] […]-3′, SEQ ID NO:15) was chemically synthesized. NanR was dialyzed extensively against Tris buffer (50 mM Tris-HCl, pH 7.0; 300 mM NaCl) and the DNA was diluted to 0.03 mM in the same buffer. Protein and DNA samples were degassed by vacuum aspiration for 20 minutes prior to loading and titration was carried out at 25° C. The NanR dimer in the syringe (0.48 mM) was titrated against the 0.03 mM DNA sample in the reaction cell. Analysis of the interaction between the NanR/ManNAc-6P complex and the DNA sample was performed using 0.48 mM of complex and 0.03 mM of DNA. The calorimetric assays were performed using a VP-ITC (MicroCal Inc., Northampton, Mass.). The stirring speed was 300 rpm and the thermal power was recorded every 10 seconds. Data were processed and plotted using the Origin program (version 7) supplied with the instrument.\nas §2"}, "[4]": {"tested_on": "PnanTp", "assay": "E. coli dual plasmid system (luciferase reporter fused to PnanTp)", "type": "cell-based", "conditions": "for repressive effect of NanR on activity of PnanTp: point mutations in DBD", "procedure": "E. coli strains were co-transformed with a luciferase reporter plasmid (pBS0915) and one of the pNB-series of plasmids that express NanR. Cells were cultured overnight and then diluted into the appropriate fresh media (supplemented M9 in FIG. 3; LB in FIG. 4) containing arabinose (0.002%), and incubated at 37° C. until cells grew to early exponential phase. Relative luminescence unit (RLU) was calculated by dividing the luminescence by the A600, as described previously. For screening ligand-sensing residues, the BSE1201 strain (ΔaraBAD ΔnanE) was used as the host cell instead of DH5α to ensure that the arabinose was not used as a carbon source and that ManNAc-6P generated from Neu5Ac was accumulated in the cell.\nTo assess the importance of the interaction between ManNAc-6P and NanR to regulation of the nan genes, the residues involved in ligand-binding were mutated and the impact on NanR function was investigated using an E. coli dual plasmid system. Cells were cotransformed with plasmids containing a luciferase reporter gene fused to the NanR-binding nanT(PSL)AR promoter (PnanTp), and wild-type or mutant NanR, and then incubated in the presence of arabinose and the presence or absence of Neu5Ac.\nThe simplest helix-turn-helix (HTH)-containing DBD includes three core helices; the HTH domains can form tetra-helical bundle, winged helix, and ribbon-helix-helix type configurations. The DBD of NanR is composed of a six-helix bundle, which is not the archetypal conformation of HTH-containing domains; therefore, the recognition helix required for DNA-binding could not been determined. […] The importance of these residues to DNA-binding was examined using an E. coli dual plasmid system described in Example 2. The repressive effect of wild-type NanR on activity of PnanTp was abolished by the R57A, R57L, R60A, and R60L point mutations (FIG. 4c)."}, "[5]": {"tested_on": "PnanE", "assay": "In vitro transcription assay", "type": "biochemical, Vibrio vulnificus", "conditions": "100 nM NanR protein, presence or absence of 1 mM ManNAc-6P", "procedure": "In vitro transcription assays with wild-type or mutant NanR proteins were performed according to procedures described previously. RNA extraction, cDNA synthesis, and real time PCR amplification of the cDNA were performed as described previously."}}, "note": "Residue numbers refer to the chain shown, from its start. Names may count otherwise."}
{"molecule": "CC(=O)N[C@@H]1C(O)O[C@H](COP(=O)(O)O)[C@@H](O)[C@@H]1O", "note": "(some centres unmarked) [ManNAc-6P, N-acetylmannosamine 6-phosphate]", "values": [{"measurement": "effect of ManNAc-6P on DNA migration in EMSA", "setting": "[1]; addition of ManNAc-6P", "value": "retardation of DNA migration"}, {"measurement": "effect of ManNAc-6P on DNaseI protection by NanR", "setting": "[2]", "value": "cleavage bands at the center of the NanR-binding site disappeared"}]}
{"molecule": "B1", "values": [{"measurement": "Kd", "setting": "[3]", "value": 186, "unit": "µM"}, {"measurement": "reduction of interaction affinity for DNA versus NanR dimer", "setting": "[3]; NanR complexed with ManNAc-6P", "value": 130, "unit": "fold"}]}
{"molecule": "B2", "values": [{"measurement": "luciferase activity (PnanTp) after addition of Neu5Ac", "setting": "[4]; BSE1201 host, arabinose, presence or absence of Neu5Ac", "value": "increased following addition of Neu5Ac"}, {"measurement": "Kd", "setting": "[3]", "value": 1.4, "unit": "µM"}]}
{"molecule": "B3", "values": [{"measurement": "DNA binding in EMSA", "setting": "[1]", "value": "not as conspicuous as that of wild-type NanR"}]}
{"molecule": "B4", "values": [{"measurement": "DNA binding in EMSA", "setting": "[1]", "value": "No DNA migration was detected"}, {"measurement": "repression of PnanE transcription", "setting": "[5]", "value": "did not repress PnanE"}, {"measurement": "repressive effect of NanR on activity of PnanTp", "setting": "[4]", "value": "abolished"}]}
{"molecule": "B5", "values": [{"measurement": "DNA binding in EMSA", "setting": "[1]", "value": "not as conspicuous as that of wild-type NanR"}]}
{"molecule": "B6", "values": [{"measurement": "DNA binding in EMSA", "setting": "[1]", "value": "No DNA migration was detected"}, {"measurement": "repression of PnanE transcription", "setting": "[5]", "value": "did not repress PnanE"}, {"measurement": "repressive effect of NanR on activity of PnanTp", "setting": "[4]", "value": "abolished"}]}
